From patent publication US20210079074A1 come the findings set out here.

The target of assay [1] is FcγRIIIa receptor (V158 variant) (UniProt P08637). Put plainly: cell-based or functional assay.
In assay [2] the target is FcγRIIa receptor (H131 variant) (UniProt P12318). The experiment in a line: cell-based or functional assay.
Sequence of FcγRIIa receptor (H131 variant) (P12318 34-317 limits assumed, change not shown): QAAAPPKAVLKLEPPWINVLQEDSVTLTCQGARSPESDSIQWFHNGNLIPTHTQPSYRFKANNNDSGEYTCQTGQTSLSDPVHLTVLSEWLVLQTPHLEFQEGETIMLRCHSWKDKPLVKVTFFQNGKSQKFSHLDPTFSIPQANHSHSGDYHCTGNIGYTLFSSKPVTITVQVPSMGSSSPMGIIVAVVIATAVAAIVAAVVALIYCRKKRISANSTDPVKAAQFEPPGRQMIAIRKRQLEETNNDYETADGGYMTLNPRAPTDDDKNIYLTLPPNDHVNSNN

Sequence of FcγRIIIa receptor (V158 variant) (P08637 other isoform, or with tags, fused parts or gaps mutant limits assumed): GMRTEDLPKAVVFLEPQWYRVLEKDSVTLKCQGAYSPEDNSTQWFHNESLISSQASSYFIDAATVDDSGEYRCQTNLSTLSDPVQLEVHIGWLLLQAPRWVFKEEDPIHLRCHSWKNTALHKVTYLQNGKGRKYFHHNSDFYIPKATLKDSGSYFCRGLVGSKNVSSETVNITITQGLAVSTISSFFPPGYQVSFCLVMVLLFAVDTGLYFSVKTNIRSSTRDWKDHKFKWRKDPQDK

In assay [1], isotype control antibody had a luminescence, ADCC reporter, 3.048316 ng/mL of 314; a luminescence, ADCC reporter, 9.144947 ng/mL of 329; a luminescence, ADCC reporter, 27.43484 ng/mL of 340; a luminescence, ADCC reporter, 82.30453 ng/mL of 377. Moreover, in assay [1], the luminescence, ADCC reporter, 246.9136 ng/mL worked out at 381; the luminescence, ADCC reporter, 740.7407 ng/mL was 379; the luminescence, ADCC reporter, 2,222.222 ng/mL came to 373; the luminescence, ADCC reporter, 6,666.667 ng/mL is 431. Further, the luminescence, ADCC reporter, 20,000 ng/mL in assay [1] stood at 399. In assay [2], the luminescence, ADCP reporter, 3.048316 ng/mL was determined as 45; the luminescence, ADCP reporter, 9.144947 ng/mL turned out to be 52; the luminescence, ADCP reporter, 27.43484 ng/mL came out at 42; the luminescence, ADCP reporter, 82.30453 ng/mL was 41. Moreover, in assay [2], the luminescence, ADCP reporter, 246.9136 ng/mL came out at 54; the luminescence, ADCP reporter, 740.7407 ng/mL was determined as 60; the luminescence, ADCP reporter, 2,222.222 ng/mL came to 57; the luminescence, ADCP reporter, 6,666.667 ng/mL stood at 49. Besides, the luminescence, ADCP reporter, 20,000 ng/mL in assay [2] came to 83.
